# Read-outs that look alike come from different tables or passages of the source.
# B1: huAbF46-H4-U7-HC6 (antibody)
# heavy: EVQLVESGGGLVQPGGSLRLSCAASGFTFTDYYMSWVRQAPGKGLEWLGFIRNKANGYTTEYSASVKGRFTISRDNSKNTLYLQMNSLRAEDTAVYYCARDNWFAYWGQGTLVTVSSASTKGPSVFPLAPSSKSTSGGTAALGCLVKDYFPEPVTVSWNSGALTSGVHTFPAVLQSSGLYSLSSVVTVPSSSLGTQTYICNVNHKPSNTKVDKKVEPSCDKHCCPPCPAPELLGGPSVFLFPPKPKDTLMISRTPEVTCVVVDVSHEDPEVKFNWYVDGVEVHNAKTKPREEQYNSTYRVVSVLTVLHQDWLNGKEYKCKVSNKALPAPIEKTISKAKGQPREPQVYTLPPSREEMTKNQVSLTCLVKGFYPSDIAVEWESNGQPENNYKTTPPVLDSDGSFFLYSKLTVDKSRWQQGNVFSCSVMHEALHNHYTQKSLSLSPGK
# light: DIQMTQSPSSLSASVGDRVTITCKSSQSLLASGNQNNYLAWHQQKPGKAPKMLIIWASTRVSGVPSRFSGSGSGTDFTLTISSLQPEDFATYYCQQSYSAPLTFGQGTKVEIKRTVAAPSVFIFPPSDEQLKSGTASVVCLLNNFYPREAKVQWKVDNALQSGNSQESVTEQDSKDSTYSLSSTLTLSKADYEKHKVYACEVTHQGLSSPVTKSFNRGEC
# B2: chimeric antibody chAbF46 (antibody, human IgG1)
# heavy: not shown
# light: DILMTQSPSSLTVSAGEKVTMSCKSSQSLLASGNQNNYLAWHQQKPGRSPKMLIIWASTRVSGVPDRFIGSGSGTDFTLTINSVQAEDLAVYYCQQSYSAPLTFGAGTKLELKRTVAAPSVFIFPPSDEQLKSGTASVVCLLNNFYPREAKVQWKVDNALQSGNSQESVTEQDSKDSTYSLSSTLTLSKADYEKHKVYACEVTHQGLSSPVTKSFNRGEC
# notes: Mouse AbF46 variable regions on human IgG1 constant regions
# B3: chAbF46-U6-HC8 (antibody, human IgG1)
# heavy: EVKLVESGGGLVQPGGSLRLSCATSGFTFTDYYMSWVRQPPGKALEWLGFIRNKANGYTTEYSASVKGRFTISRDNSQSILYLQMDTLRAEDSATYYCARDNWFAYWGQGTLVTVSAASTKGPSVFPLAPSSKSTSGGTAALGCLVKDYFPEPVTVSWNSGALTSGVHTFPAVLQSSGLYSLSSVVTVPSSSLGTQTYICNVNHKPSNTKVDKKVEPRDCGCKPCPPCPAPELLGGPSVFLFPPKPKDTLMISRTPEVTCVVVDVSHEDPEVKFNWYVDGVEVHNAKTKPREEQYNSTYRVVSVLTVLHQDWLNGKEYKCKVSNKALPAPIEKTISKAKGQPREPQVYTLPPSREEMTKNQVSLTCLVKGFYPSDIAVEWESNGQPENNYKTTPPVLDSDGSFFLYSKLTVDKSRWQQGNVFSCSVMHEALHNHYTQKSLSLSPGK
# light: B2 light
# B4: chAbF46-U3-HC9 (antibody, human IgG1)
# heavy: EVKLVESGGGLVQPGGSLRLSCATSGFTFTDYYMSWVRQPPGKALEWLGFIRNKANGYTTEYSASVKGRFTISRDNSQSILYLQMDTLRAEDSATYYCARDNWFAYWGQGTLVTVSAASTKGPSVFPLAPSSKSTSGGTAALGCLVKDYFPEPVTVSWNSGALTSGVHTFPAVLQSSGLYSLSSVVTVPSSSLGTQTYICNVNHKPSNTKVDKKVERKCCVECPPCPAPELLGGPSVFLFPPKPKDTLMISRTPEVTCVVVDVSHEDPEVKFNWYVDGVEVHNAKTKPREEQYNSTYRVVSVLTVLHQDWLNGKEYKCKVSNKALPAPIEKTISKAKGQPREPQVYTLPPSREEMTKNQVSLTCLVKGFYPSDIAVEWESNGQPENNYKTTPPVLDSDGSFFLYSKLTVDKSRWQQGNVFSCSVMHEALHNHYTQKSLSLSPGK
# light: B2 light
# B5: chAbF46-U7-HC6 (antibody, human IgG1)
# heavy: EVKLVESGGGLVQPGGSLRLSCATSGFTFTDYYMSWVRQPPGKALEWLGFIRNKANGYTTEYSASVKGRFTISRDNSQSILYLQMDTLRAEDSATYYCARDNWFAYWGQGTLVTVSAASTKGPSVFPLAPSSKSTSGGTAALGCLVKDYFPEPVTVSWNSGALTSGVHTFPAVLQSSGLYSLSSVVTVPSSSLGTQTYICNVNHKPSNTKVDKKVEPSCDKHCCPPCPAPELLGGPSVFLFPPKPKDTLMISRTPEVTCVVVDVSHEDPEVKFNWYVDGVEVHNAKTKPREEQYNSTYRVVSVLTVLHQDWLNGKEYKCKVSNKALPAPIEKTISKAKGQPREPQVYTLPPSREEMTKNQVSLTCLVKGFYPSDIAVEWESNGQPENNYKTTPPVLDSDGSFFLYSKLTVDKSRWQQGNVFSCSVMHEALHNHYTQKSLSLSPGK
# light: B2 light
# B6: chAbF46-U8-HC5 (antibody, human IgG1)
# heavy: not shown
# light: B2 light
# B7: chAbF46-U6-HC7 (antibody, human IgG1)
# heavy: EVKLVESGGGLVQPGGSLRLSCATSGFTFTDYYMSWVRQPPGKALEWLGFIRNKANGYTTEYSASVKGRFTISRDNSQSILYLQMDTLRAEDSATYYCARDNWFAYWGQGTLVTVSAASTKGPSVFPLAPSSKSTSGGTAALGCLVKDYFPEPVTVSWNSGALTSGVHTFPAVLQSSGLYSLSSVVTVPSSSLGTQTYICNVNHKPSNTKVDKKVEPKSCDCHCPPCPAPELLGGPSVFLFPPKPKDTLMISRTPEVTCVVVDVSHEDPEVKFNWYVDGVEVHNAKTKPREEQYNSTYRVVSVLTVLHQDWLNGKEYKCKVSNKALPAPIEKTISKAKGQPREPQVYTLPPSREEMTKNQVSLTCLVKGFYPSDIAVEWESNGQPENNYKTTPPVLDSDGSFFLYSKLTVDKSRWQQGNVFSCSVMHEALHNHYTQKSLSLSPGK
# light: B2 light
# B8: humanized antibody huAbF46-H1 (antibody, human IgG1, kappa, V domains shown)
# VH: EVQLVESGGGLVQPGGSLRLSCAASGFTFTDYYMSWVRQAPGKGLEWLGFIRNKANGYTTEYSASVKGRFTISRDNSKNSLYLQMNSLKTEDTAVYYCARDNWFAYWGQGTLVTVSS
# VL: DIVMTQSPDSLAVSLGERATINCKSSQSLLASGNQNNYLAWHQQKPGQPPKMLIIWASTRVSGVPDRFSGSGSGTDFTLTISSLQAEDVAVYYCQQSYSAPLTFGGGTKVEIKR
# notes: also called hAbF46-H1
# B9: humanized antibody huAbF46-H4 (antibody, human IgG1, kappa)
# heavy: not shown
# light: DIQMTQSPSSLSASVGDRVTITCKSSQSLLASGNQNNYLAWHQQKPGKAPKMLIIWASTRVSGVPSRFSGSGSGTDFTLTISSLQPEDFATYYCQQSYSAPLTFGQGTKVEIKRTVAAPSVFIFPPSDEQLKSGTASVVCLLNNFYPREAKVQWKVDNALQSGNSQESVTEQDSKDSTYSLSSTLTLSKADYEKHKVYACEVTHQGLSSPVTKSFNRGE
# notes: also called hAbF46-H4
# Key:
# Test in all cases: SPR (printed 'Biocare'), antibody immobilised on CM5 chip, c-Met injected at 100-0.39 nM
# [1] = target: T1, human c-Met protein (R&D Systems) (human, UniProt P08581 25-932, limits assumed)
# T1 construct: also called antigen
# T1 sequence (P08581 25-932 limits assumed): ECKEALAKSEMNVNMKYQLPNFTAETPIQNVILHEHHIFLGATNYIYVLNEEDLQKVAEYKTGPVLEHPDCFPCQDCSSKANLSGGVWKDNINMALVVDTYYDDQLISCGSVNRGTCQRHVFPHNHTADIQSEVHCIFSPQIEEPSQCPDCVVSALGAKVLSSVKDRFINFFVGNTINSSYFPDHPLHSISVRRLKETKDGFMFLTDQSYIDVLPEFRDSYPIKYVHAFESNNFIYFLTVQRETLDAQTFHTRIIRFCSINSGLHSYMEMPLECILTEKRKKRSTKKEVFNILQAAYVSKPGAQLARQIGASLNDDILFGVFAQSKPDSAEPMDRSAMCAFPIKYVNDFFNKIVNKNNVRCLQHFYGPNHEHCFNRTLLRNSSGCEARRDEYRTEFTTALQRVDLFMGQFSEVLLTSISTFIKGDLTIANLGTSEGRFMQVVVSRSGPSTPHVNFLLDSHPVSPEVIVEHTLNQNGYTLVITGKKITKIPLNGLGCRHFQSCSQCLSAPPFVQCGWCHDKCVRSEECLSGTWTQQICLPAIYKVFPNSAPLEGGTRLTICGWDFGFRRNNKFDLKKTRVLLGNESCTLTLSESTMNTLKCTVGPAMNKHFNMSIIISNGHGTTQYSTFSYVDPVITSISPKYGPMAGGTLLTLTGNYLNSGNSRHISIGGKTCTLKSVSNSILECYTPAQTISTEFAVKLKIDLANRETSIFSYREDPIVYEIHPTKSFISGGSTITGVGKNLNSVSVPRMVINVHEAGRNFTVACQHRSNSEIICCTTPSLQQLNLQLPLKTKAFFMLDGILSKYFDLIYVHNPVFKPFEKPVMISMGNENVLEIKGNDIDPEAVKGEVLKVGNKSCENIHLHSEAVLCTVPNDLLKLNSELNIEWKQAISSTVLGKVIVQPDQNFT
# Experimental: (§1) Each of antibodies shown in Table 4 was immobilized to about 80˜110 RU on a CM5 chip. The c-Met protein was injected at nine different concentrations within a range of about 100 nM to about 0.39 nM at a rate of 30 μl/min to obtain kₒₙ and koff values as illustrated in Table 4. KD values were calculated from the kₒₙ and koff values.
# [2] = target: T1, human c-Met protein (R&D Systems); remark: listed apart in the source
# Experimental: as §1, with “antibodies” for “antibodies shown in Table 4”, “chip, and the” for “chip. The”, “protein (which is an antigen)” for “protein”, “2.” for “4.”
# [3] = target: T1, human c-Met protein (R&D Systems); remark: listed apart in the source
# Experimental: as §1, with “antibodies” for “antibodies shown in Table 4”, “80-110” for “80˜110”, “chip, and the” for “chip. The”, “3.” for “4.”
binder,measurement,setting,value
B1,Kd,[1],3.74 nM
same,koff,[1],0.000981 s⁻¹
same,kon,[1],263000 M⁻¹ s⁻¹
B2,Kd,[2],1.01 to 1.42 nM
same,koff,[2],0.000367 s⁻¹
same,kon,[2],363000 M⁻¹ s⁻¹
same,Kd,[3],1.01 nM
same,koff,[3],0.000367 s⁻¹
same,kon,[3],363000 M⁻¹ s⁻¹
B3,Kd,[3],1.34 nM
same,koff,[3],0.000626 s⁻¹
same,kon,[3],469000 M⁻¹ s⁻¹
B4,Kd,[3],1.38 nM
same,koff,[3],0.000554 s⁻¹
same,kon,[3],400000 M⁻¹ s⁻¹
B5,Kd,[3],1.66 nM
same,koff,[3],0.000862 s⁻¹
same,kon,[3],518000 M⁻¹ s⁻¹
B6,Kd,[3],1.32 nM
same,koff,[3],0.000678 s⁻¹
same,kon,[3],515000 M⁻¹ s⁻¹
B7,Kd,[3],1.63 nM
same,koff,[3],0.000614 s⁻¹
same,kon,[3],376000 M⁻¹ s⁻¹
B8,Kd,[1],1.89 nM
same,koff,[1],0.000655 s⁻¹
same,kon,[1],346000 M⁻¹ s⁻¹
same,Kd,[2],1.89 to 1.97 nM
same,koff,[2],0.000655 s⁻¹
same,kon,[2],346000 M⁻¹ s⁻¹
B9,Kd,[1],2.39 nM
same,koff,[1],0.000802 s⁻¹
same,kon,[1],336000 M⁻¹ s⁻¹
same,Kd,[2],2.05 to 2.39 nM
same,koff,[2],0.000696 s⁻¹
same,kon,[2],339000 M⁻¹ s⁻¹
